In patent publication US20160222132A1 (IGM BIOSCIENES, published 2016):

Key:
[1] = biological target: T1, Fc2b (human µ chain CH2 to CH4 with C291S, L352S, T354K, H395V and I397K mutations and tail piece deletion) (human, UniProt P01871 112-433); assay: co-transfection in 293F cells, Capture Select IgM immunoprecipitation, non-reducing SDS-PAGE (FIG. 6, lane 2)
T1 construct: also called Pc2b
T1 chain: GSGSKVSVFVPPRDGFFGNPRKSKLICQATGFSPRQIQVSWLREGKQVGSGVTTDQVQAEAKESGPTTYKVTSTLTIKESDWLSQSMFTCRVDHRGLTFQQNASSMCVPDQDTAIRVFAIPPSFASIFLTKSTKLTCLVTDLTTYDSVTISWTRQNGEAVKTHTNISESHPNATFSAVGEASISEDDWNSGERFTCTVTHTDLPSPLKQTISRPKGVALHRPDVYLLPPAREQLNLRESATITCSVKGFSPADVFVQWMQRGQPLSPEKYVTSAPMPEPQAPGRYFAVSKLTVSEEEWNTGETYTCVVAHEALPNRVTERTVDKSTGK
Description: (§1) IgM was made by co-transfection of several different expression vectors at equal molar ratios into mammalian cells, such as 293F cells (Invitrogen). 10 μg of mixed DNA for expression vectors were mixed with 20 μl of 293Fectin (Invitrogen) for 30 minutes at room temperature in 2 ml of Opti-MEM (Invitrogen) and then added to 10⁷ 293F cells. Transfections with 293F cells were incubated for 72 hours post-transfection before harvesting the supernatant.
(§2) b. Protein purification by immunoprecipitation. [0243] i. Capture Select IgM (Catalog 2890.05, BAC, Thermo Fisher) [0244] Transfected supernatant were harvested by centrifugation at 2,000 G for 10 minutes. IgM proteins were purified by immunoprecipitation with affinity Capture Select IgM affinity matrix. 100 μl of Capture Select IgM slurry were added to 15 ml of harvested supernatant. […] The affinity matrixes were further washed with 60 μl of PBS and the supernatant were pooled for analysis by gel electrophoresis.
(§3) c. Gel electrophoresis [0246] i. Non-reducing SDS Page [0247] Non-reducing SDS PAGE was used to separate various mutant IgM proteins of different molecular weights. Novex 4-12% Bis-Tris Gel (Life Technologies) was used with Novex MES SDS Running Buffer (Life Technologies). [0248] II.

[2] = biological target: T2, Fc2a (human µ chain CH2 to CH4 region with C291S, T350Y, T354E and I397E mutations and tail piece deletion) (human, UniProt P01871 112-433); assay: co-transfection in 293F cells, Capture Select IgM immunoprecipitation, non-reducing SDS-PAGE (FIG. 6, lane 3)
T2 chain: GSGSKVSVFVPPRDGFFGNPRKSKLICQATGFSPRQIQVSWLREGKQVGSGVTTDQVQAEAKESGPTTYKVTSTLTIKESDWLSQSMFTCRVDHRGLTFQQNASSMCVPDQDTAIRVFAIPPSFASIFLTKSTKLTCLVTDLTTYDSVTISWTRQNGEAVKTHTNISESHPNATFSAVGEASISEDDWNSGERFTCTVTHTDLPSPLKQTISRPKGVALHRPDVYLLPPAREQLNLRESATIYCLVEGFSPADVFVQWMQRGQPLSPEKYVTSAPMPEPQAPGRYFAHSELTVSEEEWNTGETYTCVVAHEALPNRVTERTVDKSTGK
Description: as §1, §2, §3

[3] = biological target: the molecule itself; assay: self-association (Fc homodimer); co-transfection of wild-type Okt:Fc in 293F cells, Capture Select IgM immunoprecipitation, non-reducing SDS-PAGE (FIG. 8, lane 1)

B1: Rtx2a (µ chain of chimeric Rituxan (anti-CD20) Vh fused with CM1 to CM4 of human µ chain with C291S, T350Y, T354E and I397E mutations and tail piece deletion) … (antibody)
heavy: QVQLQQPGAELVKPGASVKMSCKASGYTFTSYNMHWVKQTPGRGLEWIGAIYPGNGDTSYNQKFKGKATLTADKSSSTAYMQLSSLTSEDSAVYYCARSTYYGGDWYFNVWGAGTTVTVSSGSASAPTLFPLVSCENSPSDTSSVAVGCLAQDFLPDSITFSWKYKNNSDISSTRGFPSVLRGGKYAATSQVLLPSKDVMQGTDEHVVCKVQHPNGNKEKNVPLPVIAELPPKVSVFVPPRDGFFGNPRKSKLICQATGFSPRQIQVSWLREGKQVGSGVTTDQVQAEAKESGPTTYKVTSTLTIKESDWLSQSMFTCRVDHRGLTFQQNASSMCVPDQDTAIRVFAIPPSFASIFLTKSTKLTCLVTDLTTYDSVTISWTRQNGEAVKTHTNISESHPNATFSAVGEASISEDDWNSGERFTCTVTHTDLPSPLKQTISRPKGVALHRPDVYLLPPAREQLNLRESATIYCLVEGFSPADVFVQWMQRGQPLSPEKYVTSAPMPEPQAPGRYFAHSELTVSEEEWNTGETYTCVVAHEALPNRVTERTVDKSTGK
light: QIVLSQSPAILSASPGEKVTMTCRASSSVSYIHWFQQKPGSSPKPWIYATSNLASGVPVRFSGSGSGTSYSLTISRVEAEDAATYYCQQWTSNPPTFGGGTKLEIKRTVAAPSVFIFPPSDEQLKSGTASVVCLLNNFYPREAKVQWKVDNALQSGNSQESVTEQDSKDSTYSLSSTLTLSKADYEKHKVYACEVTHQGLSSPVTKSFNRGEC
notes: One HL half pairs with the partner µ chain
binding result [1]: binds

B2: Rtx2b (µ chain of chimeric Rituxan (anti-CD20) Vh fused with CM1 to CM4 of human mu chain with C291S, L352S, T354K, H395V and I397K mutations and tail piece … (antibody)
heavy: QVQLQQPGAELVKPGASVKMSCKASGYTFTSYNMHWVKQTPGRGLEWIGAIYPGNGDTSYNQKFKGKATLTADKSSSTAYMQLSSLTSEDSAVYYCARSTYYGGDWYFNVWGAGTTVTVSSGSASAPTLFPLVSCENSPSDTSSVAVGCLAQDFLPDSITFSWKYKNNSDISSTRGFPSVLRGGKYAATSQVLLPSKDVMQGTDEHVVCKVQHPNGNKEKNVPLPVIAELPPKVSVFVPPRDGFFGNPRKSKLICQATGFSPRQIQVSWLREGKQVGSGVTTDQVQAEAKESGPTTYKVTSTLTIKESDWLSQSMFTCRVDHRGLTFQQNASSMCVPDQDTAIRVFAIPPSFASIFLTKSTKLTCLVTDLTTYDSVTISWTRQNGEAVKTHTNISESHPNATFSAVGEASISEDDWNSGERFTCTVTHTDLPSPLKQTISRPKGVALHRPDVYLLPPAREQLNLRESATITCSVKGFSPADVFVQWMQRGQPLSPEKYVTSAPMPEPQAPGRYFAVSKLTVSEEEWNTGETYTCVVAHEALPNRVTERTVDKSTGK
light: QIVLSQSPAILSASPGEKVTMTCRASSSVSYIHWFQQKPGSSPKPWIYATSNLASGVPVRFSGSGSGTSYSLTISRVEAEDAATYYCQQWTSNPPTFGGGTKLEIKRTVAAPSVFIFPPSDEQLKSGTASVVCLLNNFYPREAKVQWKVDNALQSGNSQESVTEQDSKDSTYSLSSTLTLSKADYEKHKVYACEVTHQGLSSPVTKSFNRGEC
notes: as for B1
binding result [2]: binds

B3: Fc chain (human IgM µ chain CM2 to CM4, cMyc tag, tail piece replaced by 6His tag, C291S) (other)
chain: GSGSKVSVFVPPRDGFFGNPRKSKLICQATGFSPRQIQVSWLREGKQVGSGVTTDQVQAEAKESGPTTYKVTSTLTIKESDWLSQSMFTCRVDHRGLTFQQNASSMCVPDQDTAIRVFAIPPSFASIFLTKSTKLTCLVTDLTTYDSVTISWTRQNGEAVKTHTNISESHPNATFSAVGEASISEDDWNSGERFTCTVTHTDLPSPLKQTISRPKGVALHRPDVYLLPPAREQLNLRESATITCLVTGFSPADVFVQWMQRGQPLSPEKYVTSAPMPEPQAPGRYFAHSILTVSEEEWNTGETYTCVVAHEALPNRVTERTVDKSTGKGGGSEQKLISEEDLNSAVDHHHHHH
notes: Native CM4 interface; also called wild-type Fc
binding result [3]: binds
